Assay results reported in the Human Domainome abundance scans (Beltran et al. 2025).
± gives the uncertainty stated by the source.

B1: KAT8 regulatory NSL complex subunit 2, residues 28 to 91; numbered along this chain, Q9H9L4 (parent)
chain: CAFTHRPCSHPRLEGQEFCIKHILEDKNAPFKQCSYISTKNGKRCPNAAPKPEKKDGVSFCAEH

Variants of: B1
Test: abundance fitness (aPCA) (normalised: wild type 0, dead -1); higher = more abundant; growth selection in yeast, the domain comes from the species named
Settings: Homo sapiens

Variant	abundance fitness
CAFTHRPCSHPRLEGQEFCSKHILEDKNAPFKQCSYISTKNGKRCPNAAPKPEKKDGVSFCAEH [I20S]	-0.136 ± 0.068
CAFTHRPCSHPRLEGQEFCTKHILEDKNAPFKQCSYISTKNGKRCPNAAPKPEKKDGVSFCAEH [I20T]	-0.2 ± 0.082
CAFTHRPCSHPRLEGQEFCWKHILEDKNAPFKQCSYISTKNGKRCPNAAPKPEKKDGVSFCAEH [I20W]	-0.201 ± 0.064
CAFTHRPCSHPRLEGQEFCYKHILEDKNAPFKQCSYISTKNGKRCPNAAPKPEKKDGVSFCAEH [I20Y]	-0.151 ± 0.078
CAFTHRPCSHPRLEGQEFCIAHILEDKNAPFKQCSYISTKNGKRCPNAAPKPEKKDGVSFCAEH [K21A]	-0.057 ± 0.058
CAFTHRPCSHPRLEGQEFCICHILEDKNAPFKQCSYISTKNGKRCPNAAPKPEKKDGVSFCAEH [K21C]	-0.119 ± 0.1
CAFTHRPCSHPRLEGQEFCIDHILEDKNAPFKQCSYISTKNGKRCPNAAPKPEKKDGVSFCAEH [K21D]	-0.149 ± 0.13
CAFTHRPCSHPRLEGQEFCIEHILEDKNAPFKQCSYISTKNGKRCPNAAPKPEKKDGVSFCAEH [K21E]	-0.085 ± 0.078
CAFTHRPCSHPRLEGQEFCIFHILEDKNAPFKQCSYISTKNGKRCPNAAPKPEKKDGVSFCAEH [K21F]	0.048 ± 0.12
CAFTHRPCSHPRLEGQEFCIGHILEDKNAPFKQCSYISTKNGKRCPNAAPKPEKKDGVSFCAEH [K21G]	-0.121 ± 0.056
CAFTHRPCSHPRLEGQEFCIHHILEDKNAPFKQCSYISTKNGKRCPNAAPKPEKKDGVSFCAEH [K21H]	-0.005 ± 0.094
CAFTHRPCSHPRLEGQEFCIIHILEDKNAPFKQCSYISTKNGKRCPNAAPKPEKKDGVSFCAEH [K21I]	-0.251 ± 0.13
CAFTHRPCSHPRLEGQEFCILHILEDKNAPFKQCSYISTKNGKRCPNAAPKPEKKDGVSFCAEH [K21L]	-0.127 ± 0.048
CAFTHRPCSHPRLEGQEFCIMHILEDKNAPFKQCSYISTKNGKRCPNAAPKPEKKDGVSFCAEH [K21M]	-0.159 ± 0.068
CAFTHRPCSHPRLEGQEFCINHILEDKNAPFKQCSYISTKNGKRCPNAAPKPEKKDGVSFCAEH [K21N]	-0.125 ± 0.095
CAFTHRPCSHPRLEGQEFCIPHILEDKNAPFKQCSYISTKNGKRCPNAAPKPEKKDGVSFCAEH [K21P]	-0.904 ± 0.085
CAFTHRPCSHPRLEGQEFCIQHILEDKNAPFKQCSYISTKNGKRCPNAAPKPEKKDGVSFCAEH [K21Q]	-0.117 ± 0.16
CAFTHRPCSHPRLEGQEFCIRHILEDKNAPFKQCSYISTKNGKRCPNAAPKPEKKDGVSFCAEH [K21R]	-0.058 ± 0.054
CAFTHRPCSHPRLEGQEFCISHILEDKNAPFKQCSYISTKNGKRCPNAAPKPEKKDGVSFCAEH [K21S]	-0.125 ± 0.053
CAFTHRPCSHPRLEGQEFCITHILEDKNAPFKQCSYISTKNGKRCPNAAPKPEKKDGVSFCAEH [K21T]	-0.157 ± 0.079
CAFTHRPCSHPRLEGQEFCIVHILEDKNAPFKQCSYISTKNGKRCPNAAPKPEKKDGVSFCAEH [K21V]	-0.117 ± 0.051

Variant	abundance fitness
CAFTHRPCSHPRLEGQEFCIWHILEDKNAPFKQCSYISTKNGKRCPNAAPKPEKKDGVSFCAEH [K21W]	-0.173 ± 0.062
CAFTHRPCSHPRLEGQEFCIYHILEDKNAPFKQCSYISTKNGKRCPNAAPKPEKKDGVSFCAEH [K21Y]	-0.227 ± 0.16
CAFTHRPCSHPRLEGQEFCIKAILEDKNAPFKQCSYISTKNGKRCPNAAPKPEKKDGVSFCAEH [H22A]	-0.769 ± 0.053
CAFTHRPCSHPRLEGQEFCIKCILEDKNAPFKQCSYISTKNGKRCPNAAPKPEKKDGVSFCAEH [H22C]	-0.383 ± 0.13
CAFTHRPCSHPRLEGQEFCIKDILEDKNAPFKQCSYISTKNGKRCPNAAPKPEKKDGVSFCAEH [H22D]	-0.904 ± 0.098
CAFTHRPCSHPRLEGQEFCIKFILEDKNAPFKQCSYISTKNGKRCPNAAPKPEKKDGVSFCAEH [H22F]	-1.81 ± 0.27
CAFTHRPCSHPRLEGQEFCIKGILEDKNAPFKQCSYISTKNGKRCPNAAPKPEKKDGVSFCAEH [H22G]	-0.789 ± 0.053
CAFTHRPCSHPRLEGQEFCIKIILEDKNAPFKQCSYISTKNGKRCPNAAPKPEKKDGVSFCAEH [H22I]	-1.41 ± 0.15
CAFTHRPCSHPRLEGQEFCIKKILEDKNAPFKQCSYISTKNGKRCPNAAPKPEKKDGVSFCAEH [H22K]	-0.678 ± 0.087
CAFTHRPCSHPRLEGQEFCIKLILEDKNAPFKQCSYISTKNGKRCPNAAPKPEKKDGVSFCAEH [H22L]	-1.34 ± 0.07
CAFTHRPCSHPRLEGQEFCIKMILEDKNAPFKQCSYISTKNGKRCPNAAPKPEKKDGVSFCAEH [H22M]	-1.16 ± 0.1
CAFTHRPCSHPRLEGQEFCIKNILEDKNAPFKQCSYISTKNGKRCPNAAPKPEKKDGVSFCAEH [H22N]	-0.768 ± 0.12
CAFTHRPCSHPRLEGQEFCIKQILEDKNAPFKQCSYISTKNGKRCPNAAPKPEKKDGVSFCAEH [H22Q]	-0.506 ± 0.12
CAFTHRPCSHPRLEGQEFCIKRILEDKNAPFKQCSYISTKNGKRCPNAAPKPEKKDGVSFCAEH [H22R]	-0.812 ± 0.053
CAFTHRPCSHPRLEGQEFCIKSILEDKNAPFKQCSYISTKNGKRCPNAAPKPEKKDGVSFCAEH [H22S]	-0.729 ± 0.061
CAFTHRPCSHPRLEGQEFCIKTILEDKNAPFKQCSYISTKNGKRCPNAAPKPEKKDGVSFCAEH [H22T]	-0.877 ± 0.086
CAFTHRPCSHPRLEGQEFCIKVILEDKNAPFKQCSYISTKNGKRCPNAAPKPEKKDGVSFCAEH [H22V]	-1.36 ± 0.059
CAFTHRPCSHPRLEGQEFCIKWILEDKNAPFKQCSYISTKNGKRCPNAAPKPEKKDGVSFCAEH [H22W]	-1.4 ± 0.2
CAFTHRPCSHPRLEGQEFCIKYILEDKNAPFKQCSYISTKNGKRCPNAAPKPEKKDGVSFCAEH [H22Y]	-1.07 ± 0.16
CAFTHRPCSHPRLEGQEFCIKHALEDKNAPFKQCSYISTKNGKRCPNAAPKPEKKDGVSFCAEH [I23A]	-0.078 ± 0.068
CAFTHRPCSHPRLEGQEFCIKHCLEDKNAPFKQCSYISTKNGKRCPNAAPKPEKKDGVSFCAEH [I23C]	-0.154 ± 0.069
